Reference: US20260232827A1 (Zymeworks, published 2026)

B1: palivizumab (v21995), anti-RSV antibody, negative control (antibody, human IgG1, kappa, V domains shown)
VH: QVTLRESGPALVKPTQTLTLTCTFSGFSLSTSGMSVGWIRQPPGKALEWLADIWWDDKKDYNPSLKSRLTISKDTSKNQVVLKVTNMDPADTATYYCARSMITNWYFDVWGAGTTVTVSS
VL: DIQMTQSPSTLSASVGDRVTITCKSQLSVGYMHWYQQKPGKAPKLLIYDTSKLASGVPSRFSGSGSGTEFTLTISSLQPDDFATYYCFQGSGYPFTFGGGTKLEIKR
B2: lifastuzumab (v18993), reference anti-NaPi2b antibody (antibody, human IgG1, kappa)
heavy 1: GEVQLVESGGGLVQPGGSLRLSCAASGFSFSDFAMSWVRQAPGKGLEWVATIGRVAFHTYYPDSMKGRFTISRDNSKNTLYLQMNSLRAEDTAVYYCARHRGFDVGHFDFWGQGTLVTVSSASTKGPSVFPLAPSSKSTSGGTAALGCLVKDYFPEPVTVSWNSGALTSGVHTFPAVLQSSGLYSLSSVVTVPSSSLGTQTYICNVNHKPSNTKVDKKVEPKSCDKTHTCPPCPAPELLGGPSVFLFPPKPKDTLMISRTPEVTCVVVDVSHEDPEVKFNWYVDGVEVHNAKTKPREEQYNSTYRVVSVLTVLHQDWLNGKEYKCKVSNKALPAPIEKTISKAKGQPREPQVYVYPPSRDELTKNQVSLTCLVKGFYPSDIAVEWESNGQPENNYKTTPPVLDSDGSFALVSKLTVDKSRWQQGNVFSCSVMHEALHNHYTQKSLSLSPG
heavy 2: not shown
light: GDIQMTQSPSSLSASVGDRVTITCRSSETLVHSSGNTYLEWYQQKPGKAPKLLIYRVSNRFSGVPSRFSGSGSGTDFTLTISSLQPEDFATYYCFQGSFNPLTFGQGTKVEIKRTVAAPSVFIFPPSDEQLKSGTASVVCLLNNFYPREAKVQWKVDNALQSGNSQESVTEQDSKDSTYSLSSTLTLSKADYEKHKVYACEVTHQGLSSPVTKSFNRGEC
B3: MX35 (v18992), reference anti-NaPi2b antibody (antibody, human IgG1, kappa)
heavy 1: GQVQLVQSGAEVVKPGASVKMSCKASGYTFTGYNIHWVKQAPGQGLEWIGAIYPGNGDTSYKQKFRGRATLTADTSTSTVYMELSSLRSEDSAVYYCARGETARATFAYWGQGTLVTVSSASTKGPSVFPLAPSSKSTSGGTAALGCLVKDYFPEPVTVSWNSGALTSGVHTFPAVLQSSGLYSLSSVVTVPSSSLGTQTYICNVNHKPSNTKVDKKVEPKSCDKTHTCPPCPAPELLGGPSVFLFPPKPKDTLMISRTPEVTCVVVDVSHEDPEVKFNWYVDGVEVHNAKTKPREEQYNSTYRVVSVLTVLHQDWLNGKEYKCKVSNKALPAPIEKTISKAKGQPREPQVYVYPPSRDELTKNQVSLTCLVKGFYPSDIAVEWESNGQPENNYKTTPPVLDSDGSFALVSKLTVDKSRWQQGNVFSCSVMHEALHNHYTQKSLSLSPG
heavy 2: not shown
light: GDIQMTQSPSSLSASVGDRVTITCSASQDIGNFLNWYQQKPGKTVKVLIYYTSSLYSGVPSRFSGSGSGTDYTLTISSLQPEDFATYYCQQYSKLPLTFGQGTKLELKRTVAAPSVFIFPPSDEQLKSGTASVVCLLNNFYPREAKVQWKVDNALQSGNSQESVTEQDSKDSTYSLSSTLTLSKADYEKHKVYACEVTHQGLSSPVTKSFNRGEC
B4: v38591 (humanized anti-NaPi2b antibody, H1L2, wild-type Fc, heavy chains with C-terminal lysine) (antibody, human IgG1, kappa)
heavy: not shown
light: DVQMTQSPSSLSASVGDRVTITCRASQDVYSYLNWYQQKPGKAVKLLIYYTSRLQSGVPSRFSGSGSGTDYTLTISSLQPEDFATYYCQQYNIFPWTFGQGTKLEIKRTVAAPSVFIFPPSDEQLKSGTASVVCLLNNFYPREAKVQWKVDNALQSGNSQESVTEQDSKDSTYSLSSTLTLSKADYEKHKVYACEVTHQGLSSPVTKSFNRGEC
notes: Full-size human IgG1/kappa antibody; also called v38591 (wild-type Fc)

Biological target: T1, Construct 2 (chimeric human NaPi2b, swap in NaPi2c in 280-301) (human)
T1 construct: also called CL_#29915
Assay: flow cytometry, transfected HEK293-6e cells, antibody 20 nM

Point of comparison: B4, “Background-Subtracted AF647 Mean Fluorescence Intensity” value 1340 MFI. Against it:
- B1 — lower, -64 MFI
- B2 — lower, 1200 MFI
- B3 — lower, 1250 MFI

Biological target: T2, Construct 3 (chimeric human NaPi2b, swap in NaPi2c in 304-321) (human)
T2 construct: also called CL_#29916
Assay: as above

Point of comparison: B2, “Background-Subtracted AF647 Mean Fluorescence Intensity” value 920 MFI. Against it:
- B1 — lower, 39 MFI
- B3 — higher, 930 MFI
- B4 — higher, 1120 MFI

Biological target: T3, Construct 7 (human NaPi2b del 317-326) (human, UniProt O95436 1-690)
T3 construct: also called CL_#29921
T3 sequence: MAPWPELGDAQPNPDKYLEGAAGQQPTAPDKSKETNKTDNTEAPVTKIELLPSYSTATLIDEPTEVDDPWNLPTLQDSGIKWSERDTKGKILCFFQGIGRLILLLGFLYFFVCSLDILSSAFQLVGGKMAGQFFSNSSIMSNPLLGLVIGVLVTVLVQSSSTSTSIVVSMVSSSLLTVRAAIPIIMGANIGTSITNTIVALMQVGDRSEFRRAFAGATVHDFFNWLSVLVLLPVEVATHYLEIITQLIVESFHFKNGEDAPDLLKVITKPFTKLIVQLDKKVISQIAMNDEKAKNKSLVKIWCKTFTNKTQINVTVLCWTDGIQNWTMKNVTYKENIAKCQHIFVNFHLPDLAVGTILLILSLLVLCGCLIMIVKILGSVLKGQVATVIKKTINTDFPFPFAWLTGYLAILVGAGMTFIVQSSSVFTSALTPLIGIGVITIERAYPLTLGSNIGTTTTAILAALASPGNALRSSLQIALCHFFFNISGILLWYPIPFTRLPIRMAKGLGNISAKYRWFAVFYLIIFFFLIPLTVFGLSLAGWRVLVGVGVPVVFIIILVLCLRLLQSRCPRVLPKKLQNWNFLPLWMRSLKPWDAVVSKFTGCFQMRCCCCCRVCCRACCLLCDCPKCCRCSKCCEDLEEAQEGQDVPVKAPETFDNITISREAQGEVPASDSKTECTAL
Assay: as above

Point of comparison: B1, “Background-Subtracted AF647 Mean Fluorescence Intensity” value -85 MFI. Against it:
- B2 — higher, 35 MFI
- B3 — higher, 233 MFI
- B4 — higher, 981 MFI

Biological target: T4, Construct 6 (human NaPi2b del 317-333) (human, UniProt O95436 1-690)
T4 construct: also called CL_#29919
T4 sequence: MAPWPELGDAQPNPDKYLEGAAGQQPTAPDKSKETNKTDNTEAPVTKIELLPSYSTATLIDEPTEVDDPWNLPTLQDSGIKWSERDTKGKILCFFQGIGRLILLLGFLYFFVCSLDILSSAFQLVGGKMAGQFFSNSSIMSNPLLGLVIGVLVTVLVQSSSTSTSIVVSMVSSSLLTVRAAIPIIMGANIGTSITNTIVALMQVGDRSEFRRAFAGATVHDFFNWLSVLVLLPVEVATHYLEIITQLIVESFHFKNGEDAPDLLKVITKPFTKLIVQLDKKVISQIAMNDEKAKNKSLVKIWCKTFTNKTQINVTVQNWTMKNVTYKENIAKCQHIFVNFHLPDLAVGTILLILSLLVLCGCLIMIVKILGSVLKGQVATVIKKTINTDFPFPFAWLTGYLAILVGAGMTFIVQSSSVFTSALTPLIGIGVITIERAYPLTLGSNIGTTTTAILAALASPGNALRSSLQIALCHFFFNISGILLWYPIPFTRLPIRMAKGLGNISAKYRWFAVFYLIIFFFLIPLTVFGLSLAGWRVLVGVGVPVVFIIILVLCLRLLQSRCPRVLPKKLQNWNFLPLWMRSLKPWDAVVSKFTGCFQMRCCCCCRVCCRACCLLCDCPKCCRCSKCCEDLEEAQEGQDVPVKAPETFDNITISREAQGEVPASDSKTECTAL
Assay: as above

Point of comparison: B2, “Background-Subtracted AF647 Mean Fluorescence Intensity” value -3 MFI. Against it:
- B1 — higher, 1 MFI
- B3 — higher, 67 MFI
- B4 — lower, -7 MFI

Biological target: T5, Full length human NaPi2b (sodium-dependent phosphate transporter 2B, SLC34A2) (human, UniProt O95436 1-690)
T5 construct: also called huNaPi2b; CL_#13432
T5 sequence: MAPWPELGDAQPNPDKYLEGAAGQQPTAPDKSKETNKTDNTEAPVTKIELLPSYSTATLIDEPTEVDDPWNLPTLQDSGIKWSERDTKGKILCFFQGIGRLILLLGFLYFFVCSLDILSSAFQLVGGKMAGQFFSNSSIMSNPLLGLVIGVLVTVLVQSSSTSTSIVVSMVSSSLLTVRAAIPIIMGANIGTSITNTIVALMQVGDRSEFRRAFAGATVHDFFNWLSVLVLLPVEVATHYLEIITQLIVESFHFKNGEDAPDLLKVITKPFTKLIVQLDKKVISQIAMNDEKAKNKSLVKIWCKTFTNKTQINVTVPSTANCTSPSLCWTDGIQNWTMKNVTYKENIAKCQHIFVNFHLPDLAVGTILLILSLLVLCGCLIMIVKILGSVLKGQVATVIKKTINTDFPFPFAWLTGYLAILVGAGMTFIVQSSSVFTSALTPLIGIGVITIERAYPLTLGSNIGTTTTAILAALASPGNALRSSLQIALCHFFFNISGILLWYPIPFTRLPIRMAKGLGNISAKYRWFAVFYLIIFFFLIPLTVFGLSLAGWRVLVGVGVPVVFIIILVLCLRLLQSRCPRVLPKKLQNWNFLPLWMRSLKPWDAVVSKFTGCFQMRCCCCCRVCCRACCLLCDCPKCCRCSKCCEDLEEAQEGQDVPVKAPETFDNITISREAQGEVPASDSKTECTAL
Assay: as above

Point of comparison: B2, “Background-Subtracted AF647 Mean Fluorescence Intensity” value 1370 MFI. Against it:
- B1 — lower, 13 MFI
- B3 — lower, 1250 MFI
- B4 — higher, 1420 MFI

Biological target: T6, Construct 5 (chimeric human NaPi2b, swap in NaPi2a in 304-348) (human)
T6 construct: also called CL_#13436
Assay: as above

Point of comparison: B1, “Background-Subtracted AF647 Mean Fluorescence Intensity” value 123 MFI. Against it:
- B2 — lower, 52 MFI
- B3 — lower, 79 MFI

Biological target: T7, Construct 1 (chimeric human NaPi2b, swap in NaPi2c in 239-259) (human)
T7 construct: also called CL_#29914
Assay: as above

Point of comparison: B1, “Background-Subtracted AF647 Mean Fluorescence Intensity” value -27 MFI. Against it:
- B2 — higher, 1700 MFI
- B3 — higher, 1820 MFI
- B4 — higher, 1860 MFI

Biological target: T8, Construct 4 (chimeric human NaPi2b, swap in NaPi2c in 341-358) (human)
T8 construct: also called CL_#13435
Assay: as above

Point of comparison: B4, “Background-Subtracted AF647 Mean Fluorescence Intensity” value 993 MFI. Against it:
- B1 — lower, 22 MFI
- B2 — higher, 1050 MFI
- B3 — lower, 979 MFI

Biological target: T5, Full length human NaPi2b …
Assay: flow cytometry, transfected HEK293-6e cells, antibody 2 nM;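 also: transfected cells exposed to test antibody 24 h at 4 °C to block internalization, at least 1,000 events per well, background is mean MFI of unstained cells lacking primary antibody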

Point of comparison: B2, “Background-Subtracted AF647 Mean Fluorescence Intensity” value 1040 MFI. Against it:
- B1 — lower, -22 MFI
- B3 — lower, 870 MFI
- B4 — lower, 948 MFI
